Measured values as given in paper PMC9814900.

Biological target: MDM2 25-109 (Homo sapiens), Q00987
Test: BLI competition
Settings: modification not given

AAFAAYWAALAAK [peptide 34]
Kd: 4.7 nM
